The source of these data is paper PMC4802056.

The target in this test is taxol-stabilized microtubules. Briefly: co-sedimentation; microtubule spin-down from DT40 lysates (about 2 mg/ml) mixed with taxol-stabilized microtubules (0.2 mg/ml) or non-taxol tubulin, 30 °C 30 min, pelleted through a 1 M sucrose cushion in BRB80, western blotting.

For the substance CEP215(ΔCM1)-TAP (domain or fragment), the fold reduction in microtubule binding compared with CEP215-TAP and CEP215(ΔHBR)-TAP is 3.4 fold.
